According to article PMC11286758, “The small CRL4^CSA ubiquitin ligase component DDA1 regulates transcription-coupled repair dynamics” (Nature Communications, 2024):

Target: T1, CSA-DDB1 (human, UniProt Q13216 1-396; Q16531 1-1140)
T1 construct: CSA, human, full-length coding gene; pAC8-CSA-Strep II clone; DDB1, human, full-length coding gene, synthesized and codon-optimized for insect cells; also called CSA/DDB1 complex; CSA-DDB1 alone; source: Sf9, co-expressed (biGBac), purified (Nickel-chelating sepharose, Resource Q, Superdex 200)
Assay: nano-differential scanning fluorimetry; complexes at 2 µM in 20 mM HEPES pH 7.5, 150 mM NaCl, 5% glycerol, 0.5 mM TCEP; Prometheus NT.48, 350/330 nm ratio, 1 °C/min from 20 to 90 °C; compared with CSA-DDB1 alone
Details: both partners purified

T1 sequence (Q13216 whole entry, chain 1 of 2): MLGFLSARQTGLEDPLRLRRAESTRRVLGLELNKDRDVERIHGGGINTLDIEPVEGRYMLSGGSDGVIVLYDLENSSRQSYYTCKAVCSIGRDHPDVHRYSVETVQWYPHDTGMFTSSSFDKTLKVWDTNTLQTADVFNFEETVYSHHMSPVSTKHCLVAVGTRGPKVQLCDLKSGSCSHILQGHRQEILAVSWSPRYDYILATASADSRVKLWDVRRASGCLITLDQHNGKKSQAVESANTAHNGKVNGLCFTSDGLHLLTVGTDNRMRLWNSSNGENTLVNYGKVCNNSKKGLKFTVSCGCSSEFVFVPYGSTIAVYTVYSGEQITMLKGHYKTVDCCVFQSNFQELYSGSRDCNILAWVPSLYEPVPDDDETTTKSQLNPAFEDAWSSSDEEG
T1 sequence (Q16531 whole entry, chain 2 of 2): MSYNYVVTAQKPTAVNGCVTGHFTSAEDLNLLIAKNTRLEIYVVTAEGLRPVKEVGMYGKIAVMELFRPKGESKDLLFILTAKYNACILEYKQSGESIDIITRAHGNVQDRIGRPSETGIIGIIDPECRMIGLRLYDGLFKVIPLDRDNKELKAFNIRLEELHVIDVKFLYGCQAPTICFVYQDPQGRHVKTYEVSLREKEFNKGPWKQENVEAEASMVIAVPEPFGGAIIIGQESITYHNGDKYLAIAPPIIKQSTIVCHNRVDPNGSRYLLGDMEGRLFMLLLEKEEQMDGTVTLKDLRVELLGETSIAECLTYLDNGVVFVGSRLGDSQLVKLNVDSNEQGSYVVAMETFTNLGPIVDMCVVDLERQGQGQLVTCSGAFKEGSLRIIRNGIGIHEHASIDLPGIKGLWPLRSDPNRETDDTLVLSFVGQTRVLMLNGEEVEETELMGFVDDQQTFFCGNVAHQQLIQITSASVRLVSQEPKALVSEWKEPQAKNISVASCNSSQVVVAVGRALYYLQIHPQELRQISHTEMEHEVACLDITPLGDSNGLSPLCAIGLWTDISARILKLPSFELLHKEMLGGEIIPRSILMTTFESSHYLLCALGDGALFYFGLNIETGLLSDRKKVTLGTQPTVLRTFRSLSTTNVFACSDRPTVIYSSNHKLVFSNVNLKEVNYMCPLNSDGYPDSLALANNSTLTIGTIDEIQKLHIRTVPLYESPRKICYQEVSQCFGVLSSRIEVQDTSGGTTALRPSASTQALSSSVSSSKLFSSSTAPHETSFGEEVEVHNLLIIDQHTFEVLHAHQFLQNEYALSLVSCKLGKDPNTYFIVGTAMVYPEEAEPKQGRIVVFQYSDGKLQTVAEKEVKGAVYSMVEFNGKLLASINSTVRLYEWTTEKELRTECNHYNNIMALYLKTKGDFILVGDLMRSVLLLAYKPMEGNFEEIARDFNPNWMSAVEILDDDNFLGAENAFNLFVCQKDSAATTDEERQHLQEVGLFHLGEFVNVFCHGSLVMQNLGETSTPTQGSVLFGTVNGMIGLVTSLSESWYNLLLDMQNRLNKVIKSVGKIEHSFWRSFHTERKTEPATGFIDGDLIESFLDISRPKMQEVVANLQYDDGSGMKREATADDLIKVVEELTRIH

- binding result: binds
B1: DDA1^1-52 (domain or fragment)
chain: not shown
notes: DDA1, human, residues 1-52; Used as the complex CSA-DDB1-DDA1^1-52; also called DDA1 C-terminal truncation; DDA1Δ
